This note sets out measurements from patent publication US20250027090.

Data set [1] deals with T1, thrombin (native human beta-thrombin) (Homo sapiens) (UniProt P00734+P00734). The experiment in a line: EMSA. Conditions: for Kd: selection buffer, 10% glycerol, room temperature; for binding signal: 1 uM thrombin. A general note: Mobility shift assays separate free from complexed probe on a gel.
The target of data set [2] is T1, thrombin (native human beta-thrombin) (Homo sapiens). The experiment in a line: ITC. The settings on record: L-DNA (all nucleotides); physiological buffer pH 7.4, 25 C.
The target in data set [3] is thrombin (native bovine alpha-thrombin) (Bos taurus) (UniProt P00735+P00735). Put plainly: ITC. The settings on record: L-DNA (all nucleotides).
Data set [4] has as its target T1, thrombin (native human beta-thrombin) (Homo sapiens). The experiment in a line: inhibition. Conditions: L-DNA (all nucleotides); R0 pool, no inhibition up to 8 uM.

By Kd is commonly meant the concentration at which binding is half-saturated. A higher Kd goes with a looser complex. For the sequence “GATGAACTTGTTGAAACCCAACGGGAGCCTCGTTCATT [Cy5-L-13t aptamer]”, the Kd in data set [1] (L-DNA (all nucleotides)) was found to be 28 nM.

In data set [2], “CGGATCCAGTTACGGATGAACTTGTTGAAACCCAACGGGAGAATCGTTCATTCAGTAAGCTTCGG [L-9-2 aptamer]” returned a Kd of 168 nM.

Turning to “CGGATCCAGTTACGGANNNNNNNNNNNNNNNNNNNNNNNNNNNNNNTTCATTCAGTAAGCTTCGG [R6 D-DNA pool]”, the binding signal in data set [1] was 70 % bound.

Consider “CGGATCCAGTTACGGATGAACTTGTTGAAACCCAACGGGAGCCTCGTTCATTCAGTAAGCTTCGGTGG [L-13 aptamer]”, for which, in data set [2], the Kd is 22 nM.

For “GATGAACTTGTTGAAACCCAACGGGAGAATCGTTCATT [Cy5-L-9-2t aptamer]”, the Kd in data set [1] (L-DNA (all nucleotides)) turned out to be 355 nM.

“GATGAACTTGTTGAAACCCAACGGGAGCCTCGTTCATT [L-13t aptamer]”: the Kd in data set [2] amounted to 34 nM.

Consider “ACGGAACGCGTTTCAAGACTACCGTGTTTGTTCCGT [L-9-1t aptamer]”, for which the values for the Kd in data set [3] (~26-fold weaker than human thrombin) and in data set [2] were 1030 nM and 39 nM, respectively.

Take “ACGGAACGCGTTTCAAGACTACCGTGTTTGTTCCGT [Cy5-L-9-1t aptamer]”: in data set [1] (L-DNA (all nucleotides)), the Kd worked out at 21 nM.

As to “GATGAACTTGTTGAAACCCAACGGGAGAATCGTTCATT [L-9-2t aptamer]”, the Kd stood at 426 nM in data set [3] (~1.7-fold weaker than human thrombin) and 251 nM in data set [2].

In turn, “CGGATCCAGTTACGGANNNNNNNNNNNNNNNNNNNNNNNNNNNNNNTTCATTCAGTAAGCTTCGG [R9 L-DNA pool]” yielded a binding signal in data set [1] (L-DNA (all nucleotides), 200 nM pool) of 70 % bound.

Broadly, the IC50 is the concentration that inhibits the measured activity by half. Lower therefore signals greater potency. Regarding “CGGATCCAGTTACGGANNNNNNNNNNNNNNNNNNNNNNNNNNNNNNTTCATTCAGTAAGCTTCGG [R0 L-DNA library pool]”, the IC50 in data set [4] is above 8000 nM.

“CGGATCCAGTTACGGAACGCGTTTCAAGACTACCGTGTTTGTTCCGTTCATTCAGTAAGCTTCGG [L-9-1 aptamer]”: in data set [2], the dissociation constant (Kd) is 29 nM.
